Source: US20070072177A1

B1: CR04-120 (antibody)
VH: AMAEVQLVQSGGGLVQPGRSLRLSCAASGFTFSTYGMHWVRQAPGKGLEWVATISYDGSIKDYADSEKGRFTISRDNSKNTLYLQMNSLRAEDTAVYYCAKGGKTGEFDYWGQGTLVTVSSGTGGSGGTGSGTGGSTDIQLTQSPSTLSASVGDRVTITCRASQGINSYLAWYQQEPGKAPKLLIYAASTLQSGVPSRFSGSGSGTEFTLTISSLQPEDFATYYCQQLNSYPFTFGPGTKVDIKRAAA
VL: B1 VH
B2: CR04-108 (antibody)
VH: AMAEVQLVQSGGGLVQPGGSLRLSCAASGFTFSSYGMHWVRQAPGKGLEWVAVILYDGSDKFYADSVKGRFTISRDNSKDTLYLQMNSLRAEDTAVYYCAKFMIVADDAFDIWGQGTMVTVSSGTGGSGGTGSGTGGSTDIQLTQSPSSLSASVGDRVTITCRASQGISSHLVWYQQKPGKAPKSLIYAASSLQSGVPSRFSGSESATDFTLTISSLQPEDFATYYCQQYYSYPITFGQGTRLEIKRAAA
VL: B2 VH
B3: CR04-144 (antibody)
VH: AMAQVQLQELGGGVVQPGRSLRLSCAASGFTFGSYGMHWVRQAPGKGLEWVATISYDGSIKDYADSEKGRFTISRDNSKNTLYLQMNSLRAEDTAVYYCAKGGKTGEFDYWGQGTLVTVSSGTGGSGGTGSGTGGSTDIQLTQSPSSLSASVGDRVTITCRASQGISSYLAWYQQKPGKGPKLLIYAASTLQSGVPSRFSGSGSGTDFSLTISSLQPEDLATYYCQQYDSYPLTFGGGTKVEIKRAAA
VL: B3 VH
B4: CR04-140 (antibody)
VH: AMAQMQLVQSGGGVVQPGRSLRLSCAASGFTFSSYGMHWVRQAPGKGLEWVAVILYDGSNKYYADSVKGRFTISRDNSKNALYLQMNSLRAEDTAVYYCAKVTNPGDAFDIWGQGTMVTVSSGTGGSGGTGSGTGGSTDIQMTQSPSSLSASVGDRVTITCRASQGISSALAWYQQKPGKAPKLLIYDASSLESGVPSRFSGSGSGTDFTLTISSLQPEDFATYYCQQFNSYPLTFGGGTKVEIKRAAA
VL: B4 VH

target: rabies virus glycoprotein (G protein) of strain CVS-11 (rabies virus strain CVS-11) (UniProt O92284); experiment: cell-based or functional assay
Sequence (O92284 20-524 limits assumed): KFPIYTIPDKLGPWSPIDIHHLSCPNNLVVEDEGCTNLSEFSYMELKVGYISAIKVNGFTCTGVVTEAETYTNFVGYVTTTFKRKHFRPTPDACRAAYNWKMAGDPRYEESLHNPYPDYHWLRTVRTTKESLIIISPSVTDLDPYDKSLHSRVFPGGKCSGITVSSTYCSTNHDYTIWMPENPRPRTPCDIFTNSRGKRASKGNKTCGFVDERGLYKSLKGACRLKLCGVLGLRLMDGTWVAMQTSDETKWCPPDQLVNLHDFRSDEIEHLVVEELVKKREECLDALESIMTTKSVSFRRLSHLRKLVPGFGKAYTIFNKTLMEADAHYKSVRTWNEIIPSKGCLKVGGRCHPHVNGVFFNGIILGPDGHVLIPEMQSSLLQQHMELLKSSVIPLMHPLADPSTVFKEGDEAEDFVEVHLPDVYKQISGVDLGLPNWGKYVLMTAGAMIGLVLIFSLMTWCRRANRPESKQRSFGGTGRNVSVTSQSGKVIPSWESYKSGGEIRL

Row | Binder | Neutralizing potency (modified RFFIT)
1 | B1 | 4940 IU/mg
2 | B2 | 4870 IU/mg
3 | B3 | 6250 IU/mg
4 | B4 | 478 IU/mg
